Laboratory results from patent US20240124575A1 (SIMCERE ZAIMING PHARMACEUTICAL, published 2024).
Values belong to the binder of their own block, whether it stands above or below them.

Key:
[1] = target: T1, human CD33 on CHO-K1 cells (CHO-K1-human CD33) (human, UniProt P20138 18-364); experiment: FACS, CHO-K1-human CD33 cells
T1 construct: whole, on cells; stably transfected CHO-K1 clones; also called CHO-K1-hCD33-B8; CHO-K1-human CD33 B8
Protocol: The desired cells were expanded to a logarithmic growth phase in a T-75 cell culture flask. For adherent cells CHO-K1, the culture medium was removed by pipetting, and the cells were washed twice with a PBS buffer, digested with trypsin, and washed twice with a PBS buffer again after the digestion was stopped. For suspension cells U937, the medium supernatant was discarded by direct centrifugation, and the cell pellet was washed twice with PBS, and then incubated with a buffer containing human Fc Block (purchased from BD, Cat. No. 564220) for 15 min. After the cells obtained in the last step were subjected to cell counting, the cell pellet was resuspended to 2×10⁶ cells/mL with a blocking solution [PBS+2% (w/w) BSA] and added to a 96-well FACS reaction plate at 50 μL/well. The VHH-Fc antibody (a sample to be tested) was added at 50 μL/well, and the plate was incubated on ice for 2 h. […] After the plate was centrifuged and washed 5 times with a PBS buffer, the results were assayed and analyzed by FACS (FACS Canto™, purchased from BD Biosciences), so as to obtain the mean fluorescence intensity (MFI) of cells. Then, analysis was performed by software (GraphPad Prism8), data were fitted, and EC50 values were calculated.

[2] = target: T2, human CD33-His (extracellular domain Asp 18-His 259) (human, UniProt P20138 18-259); experiment: competitive ELISA vs coated C33B904 2ug/mL; soluble 25ug/ml
T2 construct: range 18-259; bought protein; also called hCD33-his; human CD33 protein; not shown: His tag
T2 sequence (P20138 18-259 limits assumed): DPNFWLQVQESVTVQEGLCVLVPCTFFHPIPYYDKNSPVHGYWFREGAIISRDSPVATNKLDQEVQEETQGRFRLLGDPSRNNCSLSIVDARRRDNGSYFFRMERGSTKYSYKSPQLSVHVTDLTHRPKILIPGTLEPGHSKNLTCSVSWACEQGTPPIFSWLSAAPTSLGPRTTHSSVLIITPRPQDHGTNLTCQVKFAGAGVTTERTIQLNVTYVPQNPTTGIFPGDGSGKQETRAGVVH
Protocol: (§1) VHH antibodies and control antibodies with known epitopes were subjected to epitope classification with competitive ELISA. ELISA plates were coated with 2 μg/mL antibodies according to the method in Example 5.1; the human CD33-his protein was subjected to a gradient dilution from 30 μg/mL, and EC80 values (Tables 26-27) were calculated. ELISA plates were coated with 2 μg/mL antibodies; after 25 µg/mL of antibodies to be tested were added, a human CD33-his protein having an EC80 concentration corresponding to each of the antibodies to be tested was then added for incubation for 2 h. The plates were washed 5 times with PBS, then HRP-labeled anti-His antibodies (purchased from GenScript, Cat. No. A00612) were added for incubation for 1 h, and the plates were washed 5 times. A TMB substrate was added at 50 μL/well and incubated at room temperature for 10 min, then a stop solution (1.0 M HCl) was added at 50 μL/well. OD_{450 nm} values were read using an ELISA plate reader (Insight, purchased from PerkinElmer), and the competition rate between the antibodies was calculated according to the OD_{450 nm} values using a formula. The results are shown in FIGS. 12A-12B, the higher the value of the competition rate, the closer the epitopes to which two antibodies bind.

monkey CD33-His protein [3] = target: T3, monkey CD33-His protein (monkey); experiment: ELISA on coated monkey CD33-his
T3 construct: also called monkey CD33 protein

[4] = target: T2, human CD33-His (extracellular domain …); experiment: competitive ELISA vs coated SGN-33 2ug/mL; soluble 25ug/ml
Protocol: as §1

[5] = target: T2, human CD33-His (extracellular domain …); experiment: competitive ELISA vs coated S006-NB146-40 2ug/mL; soluble 25ug/ml
Protocol: as §1

human CD33-his protein = target: T4, human CD33-his protein (human, UniProt P20138 18-259); experiment: competition ELISA, coated human CD33-his, vs Biotin-C33B904 at EC80; antibody 15.63 nM
T4 construct: range 18-259; bought protein; also called hCD33-his; recombinant human CD33-his; not shown: His tag
T4 sequence (P20138 18-259 limits assumed): as above
Protocol: The plate was sealed with a plastic film and incubated at 4° C. overnight, washed twice with PBS the next day, and a blocking solution [PBS+2% (w/w) BSA] was added for blocking at room temperature for 2 h. The blocking solution was discarded, and VHH-Fc antibody or negative control antibody serially diluted from 100 nM was added at 50 μL/well. After incubation at 37° C. for 2 h, the plate was washed 3 times with PBS. A secondary antibody labeled with HRP (horseradish peroxidase) (purchased from Sigma, Cat. No. A0170) was added. After incubation for 1 h at 37° C., the plate was washed 5 times with PBS. A TMB substrate was added at 50 μL/well. After incubation at room temperature for 10 min, a stop solution (1.0 N HCl) was added at 50 μL/well. The OD450 nm values were read on an ELISA plate reader (Multimode Plate Reader, EnSight, purchased from Perkin Elmer). The assay results for the binding of the VHH-Fc to hCD33-his by ELISA are shown in FIGS. 7A and 7B and Tables 11 and 12. […] The IgG control was hIgG1, and the data in the table are OD450 nm values.
ELISA plates were coated with 2 μg/mL human CD33-his protein according to the method in Example 5.1; the Biotin-C331B904 antibody was subjected to a gradient dilution from 15 μg/mL, and EC80 values (0.18 μg/mL) were calculated. […] OD_{450 nm} values were read using an ELISA plate reader (Insight, purchased from PerkinElmer). […]

monkey CD33-his protein [6] = target: T5, monkey CD33-his protein (monkey); experiment: SPR (Biacore), antibody captured on Protein A chip, monkey CD33 analyte
T5 construct: bought protein; also called monkey CD33 protein (Sino Biological, Cat. No. 50712-M08H)

T1 sequence (P20138 18-364): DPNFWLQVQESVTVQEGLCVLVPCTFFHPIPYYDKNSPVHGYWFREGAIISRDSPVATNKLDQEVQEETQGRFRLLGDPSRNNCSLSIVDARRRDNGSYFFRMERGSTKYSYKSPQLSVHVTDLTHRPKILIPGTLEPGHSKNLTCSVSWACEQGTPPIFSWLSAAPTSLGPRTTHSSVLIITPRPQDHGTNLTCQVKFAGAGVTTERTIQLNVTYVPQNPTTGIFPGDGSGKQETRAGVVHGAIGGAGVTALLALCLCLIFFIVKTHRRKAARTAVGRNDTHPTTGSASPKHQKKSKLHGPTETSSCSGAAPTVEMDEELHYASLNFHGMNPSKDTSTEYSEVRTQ

EC50 [1]: 4.53 nM
Max MFI [1]: 12400 MFI
inhibition rate [2]: 88%
EC50 (read off the curve) (monkey CD33-His protein [3]): ~0.2 nM
inhibition rate [4]: 17%
inhibition rate [5]: -5%
B1: C33B904 hIgG1 (antibody, V domains shown)
VH: EVQLVESGGGLVQPGRSLRLSCAASGFTFDDYAMHWVRQAPGKGLEWVSGIGWSGGSIVYADSVKGRFTISRDNAKNSLYLQMNSLRAEDTALYYCAKDSPYGDFFDYWGQGTLVTVSS
VL: DIVMTQSPDSLAVSLGERATINCKSSQTVFYSSNNKNYLAWYQQKPGQPPKLLISWASTRKSGVPDRFSGSGSGTDFTLTVSSLQAEDVAVYYCQHYYSTPYTFGQGTKLEIKR
notes: intact human IgG1; variable regions from US20190382481A1; also called C33B3904; C331B904

OD450 (Biotin-C33B904 signal) (human CD33-his protein): 1.03
Kd (monkey CD33-his protein [6]): 0.565 nM
koff (monkey CD33-his protein [6]): 0.000626 s⁻¹
kon (monkey CD33-his protein [6]): 1.11e+06 M⁻¹ s⁻¹
B2: C33B904 (antibody, human IgG1, kappa, V domains shown)
VH: B1 VH
VL: B1 VL
notes: control antibody, intact human IgG1 form; variable regions from US20190382481A1; also called C33B904 hIgG1; C331B904
